Measurements published in PMC4041747, “Structural and Mutagenic Analysis of the RM Controller Protein C.Esp1396I” (PLoS ONE, 2014).

Columns and labels:
[1] = tested on: C.Esp1396I R46A (Enterobacter sp. RFL1396?); assay: SPR; details: SPR (Biacore T-100): 130 mM NaCl, 10 mM HEPES pH 7.4, 0.05% Tween-20; temperature not stated; 20-1000 nM total protein
[2] = tested on: C.Esp1396I S52A (Enterobacter sp. RFL1396?); assay: SPR; details: SPR (Biacore T-100): 130 mM NaCl, 10 mM HEPES pH 7.4, 0.05% Tween-20; temperature not stated; 20-1000 nM total protein
[3] = tested on: C.Esp1396I Y37A (Enterobacter sp. RFL1396?); assay: SPR; details: SPR (Biacore T-100): 130 mM NaCl, 10 mM HEPES pH 7.4, 0.05% Tween-20; temperature not stated; 20-1000 nM total protein
[4] = tested on: C.Esp1396I Y37F (Enterobacter sp. RFL1396?); assay: SPR; details: SPR (Biacore T-100): 130 mM NaCl, 10 mM HEPES pH 7.4, 0.05% Tween-20; temperature not stated; 20-1000 nM total protein
[5] = tested on: C.Esp1396I wild type (Enterobacter sp. RFL1396?); assay: SPR; details: SPR (Biacore T-100): 130 mM NaCl, 10 mM HEPES pH 7.4, 0.05% Tween-20; temperature not stated; 20-1000 nM total protein
[6] = target: the molecule itself; assay: crystal structure; free protein crystals, protein at 2-14 mg/mL, diffraction data at 100 K; dimer of the protein with itself

Row | Molecule | binding result [6] | other results
1 | OM operator duplex |  | Kd [1]: 15.8 nM; Kd [2]: 2.6 nM; Kd [3]: 5.5 nM; Kd [4]: 1.8 nM; Kd [5]: 0.51 nM
2 | C.Esp1396I wild type (RM controller protein) (natural protein, controller (C) protein C.Esp1396I of the Esp1396I restriction-modification system; Residues may be left at the N-terminus after thrombin cleavage; also called native protein; WT; not shown: His6, N-terminal, cleaved) MESFLLSKVSFVIKKIRLEKGMTQEDLAYKSNLDRTYISGIERNSRNLTIKSLELIMKGLEVSDVVFFEMLIKEILKHD | binds | 
3 | C.Esp1396I Y37A mutant (natural protein, controller (C) protein C.Esp1396I with Y37A; Gene synthesised by GenScript; not shown: His6, N-terminal, cleaved) MESFLLSKVSFVIKKIRLEKGMTQEDLAYKSNLDRTAISGIERNSRNLTIKSLELIMKGLEVSDVVFFEMLIKEILKHD | binds | 
4 | C.Esp1396I Y37F mutant (natural protein, controller (C) protein C.Esp1396I with Y37F; Gene synthesised by GenScript; not shown: His6, N-terminal, cleaved) MESFLLSKVSFVIKKIRLEKGMTQEDLAYKSNLDRTFISGIERNSRNLTIKSLELIMKGLEVSDVVFFEMLIKEILKHD | binds | 
5 | C.Esp1396I T36A mutant (natural protein, controller (C) protein C.Esp1396I with T36A; not shown: His6, N-terminal, cleaved) MESFLLSKVSFVIKKIRLEKGMTQEDLAYKSNLDRAYISGIERNSRNLTIKSLELIMKGLEVSDVVFFEMLIKEILKHD | binds | 
6 | C.Esp1396I R46A mutant (natural protein, controller (C) protein C.Esp1396I with R46A; Crystallised in two space groups (C2 and P3(2)); not shown: His6, N-terminal, cleaved) MESFLLSKVSFVIKKIRLEKGMTQEDLAYKSNLDRTYISGIERNSANLTIKSLELIMKGLEVSDVVFFEMLIKEILKHD | binds | 
7 | C.Esp1396I S52A mutant (natural protein, controller (C) protein C.Esp1396I with S52A; Gene synthesised by GenScript; not shown: His6, N-terminal, cleaved) MESFLLSKVSFVIKKIRLEKGMTQEDLAYKSNLDRTYISGIERNSRNLTIKALELIMKGLEVSDVVFFEMLIKEILKHD | binds | 
